Positions count from the first letter of the chain named. In names and notes the source's numbering stands.
B1: KsdD3 (3-ketosteroid-∆^1-dehydrogenase) (Pimelobacter simplex; W299A) (protein)
chain: MDWAEEYDVLVAGSGAGGMAGTYTAAREGLSVCLVEAGDKFGGTTAYSGGGGAWFPANPVLLRAGTDDTIEDALEYYRAVVGDRTPADLQETYVRGGAGLVAYLEEDDHFSFESYPWPDYFGDAPKARRDGQRHIIPTPLPVPSAPELREVVRGPLDNDRLGTPQPDDLFIGGRALVARFLTALATYPHATLVRETALAELVVEDGVVVGAIVETDGVRRAIRARRGVLLAAGGFEANDELRQKYGVPGVARDTMGPPTNVGAAHQAAIAVGADTDLMGEAWWSPGLTHPDGRSAFALAFTGGIFVDGAGRRFVNESAPYDRLGRAVIDHLTEGGVTPRYWMVYDHKEGSIPPVRATNVSMVDEEQYVAAGLWHTADTLPELAALIGVPADALVATVARFNELVADGYDADFGRGGEAYDRFFSGGEPPLVSIDEGPFHAAAFGISDLGTKGGLRTDTSARVLTADGTPIGGLYAAGNTMAAPSGTTYPGGGNPIGTSMLFSHLAVRHMGTEDAR
notes: full-length, N-terminal His6 tag (pET28a NdeI/EcoRI), E. coli BL21(DE3), Ni-NTA purified
B2: KsdD3 (3-ketosteroid-∆^1-dehydrogenase) (Pimelobacter simplex; W299G) (protein)
chain: B1 chain with A299G
B3: KsdD3 (3-ketosteroid-∆^1-dehydrogenase) (Pimelobacter simplex) (protein)
chain: B1 chain with A299W
notes: as for B1

Tests used:
[1] = target: T1, KsdD3 (3-ketosteroid-∆^1-dehydrogenase) (Pimelobacter simplex, UniProt P77815); experiment: PMS/DCPIP reduction at […] nm, Michaelis-Menten fit; assay type: biochemical; details: 50 mM Tris-HCl pH 7.5, 30 °C, 1.5 mM PMS, 40 µM DCPIP, 2% methanol
T1 construct: gene KR76_27115; full-length, N-terminal His6 tag (pET28a NdeI/EcoRI), E. coli BL21(DE3), Ni-NTA purified
T1 sequence (P77815 entry or part of it): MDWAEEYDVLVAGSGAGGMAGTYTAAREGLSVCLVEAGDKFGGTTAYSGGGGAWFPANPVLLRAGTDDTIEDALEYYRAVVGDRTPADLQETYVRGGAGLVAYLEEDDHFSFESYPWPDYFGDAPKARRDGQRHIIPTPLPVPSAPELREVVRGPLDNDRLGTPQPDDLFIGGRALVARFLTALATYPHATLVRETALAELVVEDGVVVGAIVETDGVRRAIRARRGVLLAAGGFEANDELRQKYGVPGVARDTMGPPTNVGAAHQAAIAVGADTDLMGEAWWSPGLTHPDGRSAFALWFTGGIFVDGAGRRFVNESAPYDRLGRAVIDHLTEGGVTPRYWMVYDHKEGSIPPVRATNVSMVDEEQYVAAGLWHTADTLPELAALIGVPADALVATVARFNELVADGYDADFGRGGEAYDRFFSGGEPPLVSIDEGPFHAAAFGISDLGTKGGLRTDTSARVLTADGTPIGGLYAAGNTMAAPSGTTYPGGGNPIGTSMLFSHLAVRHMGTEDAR

[2] = target: T2, KsdD3 (3-ketosteroid-∆^1-dehydrogenase) (Pimelobacter simplex, UniProt P77815, W299A); experiment: PMS/DCPIP reduction at […] nm, Michaelis-Menten fit; assay type: biochemical; details: 50 mM Tris-HCl pH 7.5, 30 °C, 1.5 mM PMS, 40 µM DCPIP, 2% methanol
T2 construct: gene KR76_27115; full-length, N-terminal His6 tag (pET28a NdeI/EcoRI), E. coli BL21(DE3), Ni-NTA purified

purified protein [3] = substrate: C[C@]12CCC(=O)C=C1CC[C@@H]1[C@@H]2C(=O)C[C@@]2(C)[C@H]1CC[C@]2(O)C(=O)CO; experiment: purified protein; details: 50 mM Tris-HCl pH 7.5, 30 °C, 1.5 mM PMS, 40 µM DCPIP, 2% methanol
purified protein [4] = substrate: CC(=O)[C@@]12O[C@@H]1C[C@H]1[C@@H]3CCC4=CC(=O)CC[C@]4(C)[C@H]3[C@H](O)C[C@@]12C; experiment: purified protein; assay type: biochemical, Pimelobacter simplex; details: 50 mM Tris-HCl pH 7.5, 30 °C, 1.5 mM PMS, 40 µM DCPIP, 2% methanol
purified protein [5] = substrate: CC(=O)[C@@]1(O)CC[C@H]2[C@@H]3CCC4=CC(=O)CC[C@]4(C)[C@H]3C(=O)C[C@@]21C; experiment: purified protein; assay type: biochemical, Pimelobacter simplex; details: 50 mM Tris-HCl pH 7.5, 30 °C, 1.5 mM PMS, 40 µM DCPIP, 2% methanol
purified protein [6] = substrate: C[C@]12CCC(=O)C=C1CC[C@@H]1[C@@H]2CC[C@@]2(C)[C@H]1CC[C@]2(C)O; experiment: purified protein; assay type: biochemical, Pimelobacter simplex; details: pH 7.5; 30.0 °C
purified protein [7] = substrate: CC(=O)OCC(=O)[C@@]1(O)CC[C@H]2[C@@H]3CCC4=CC(=O)CC[C@]4(C)[C@H]3C(=O)C[C@@]21C; experiment: purified protein; assay type: biochemical, Pimelobacter simplex; details: 50 mM Tris-HCl pH 7.5, 30 °C, 1.5 mM PMS, 40 µM DCPIP, 2% methanol
purified protein [8] = substrate: CC(=O)[C@H]1CC[C@H]2[C@@H]3CCC4=CC(=O)CC[C@]4(C)[C@H]3CC[C@]12C; experiment: purified protein; assay type: biochemical, Pimelobacter simplex; details: 50 mM Tris-HCl pH 7.5, 30 °C, 1.5 mM PMS, 40 µM DCPIP, 2% methanol
purified protein [9] = substrate: C[C@]12CC[C@H]3[C@@H](CCC4=CC(=O)CC[C@@]43C)[C@@H]1CC[C@@H]2O; experiment: purified protein; assay type: biochemical, Pimelobacter simplex; details: pH 7.5; 30.0 °C
purified protein [10] = substrate: C[C@]12CCC(=O)C=C1CC[C@@H]1[C@@H]2CC[C@]2(C)C(=O)CC[C@@H]12; experiment: purified protein; assay type: biochemical, Pimelobacter simplex; details: pH 7.5; 30.0 °C
purified protein [11] = substrate: C[C@]12CCC(=O)C=C1CC[C@@H]1[C@@H]2CC[C@]2(C)C(=O)CC[C@@H]12; experiment: purified protein; details: 50 mM Tris-HCl pH 7.5, 30 °C, 1.5 mM PMS, 40 µM DCPIP, 2% methanol

Molecule	Km (purified protein [3]) [µM]	kcat (purified protein [3]) [s⁻¹]	kcat/Km (purified protein [3]) [M⁻¹ s⁻¹]	Km (purified protein [4]) [µM]	kcat (purified protein [4]) [s⁻¹]	kcat/Km (purified protein [4]) [M⁻¹ s⁻¹]	Km (purified protein [5]) [µM]	kcat (purified protein [5]) [s⁻¹]	kcat/Km (purified protein [5]) [M⁻¹ s⁻¹]	Km (purified protein [6]) [µM]	kcat/Km (purified protein [6]) [M⁻¹ s⁻¹]	Km (purified protein [7]) [µM]	kcat (purified protein [7]) [s⁻¹]	kcat/Km (purified protein [7]) [M⁻¹ s⁻¹]	Km (purified protein [8]) [µM]	kcat (purified protein [8]) [s⁻¹]	kcat/Km (purified protein [8]) [M⁻¹ s⁻¹]	Km (purified protein [9]) [µM]	kcat/Km (purified protein [9]) [M⁻¹ s⁻¹]	Km (purified protein [10]) [µM]	also measured
C[C@]12CCC(=O)C=C1CC[C@H]1[C@@H]3CCC(=O)[C@@]3(C)CC[C@@]12O [9α-OH-AD, 9α-hydroxy-4-androstene-3,17-dione]																					Km [1]: 145 ± 4.4 µM; Km [2]: 68.5 ± 7 µM
B1	42.85 ± 3.3	78	1.82e+06	149.15 ± 4.6	33.6 ± 2.1	230000	46.85 ± 0.9	62.1 ± 6.1	1.32e+06	44.63 ± 2.8	1.66e+06	75.93 ± 3.8	47.3 ± 1.5	620000	40.37 ± 3.7	87.1 ± 4.2	2.16e+06	33.25 ± 4.2	3.7e+06	34.89 ± 2.5	kcat/Km (purified protein [10]): 3.28e+06 M⁻¹ s⁻¹
B2																					Km (purified protein [11]): 37.01 ± 1.8 µM; kcat (purified protein [11]): 101.2 ± 0.9 s⁻¹; kcat/Km (purified protein [11]): 2.74e+06 M⁻¹ s⁻¹
B3	50.04 ± 2.7	59.7	1.19e+06	228.26 ± 7.1	19.2 ± 4.5	80000	57.12 ± 2.8	55.2 ± 3.7	970000	55.35 ± 3.1	1.03e+06	95.08 ± 4.7	45.3 ± 3.5	480000	62.31 ± 4.8	53.5 ± 4.1	860000	42.05 ± 4.3	1.89e+06	47.43 ± 1.9	kcat/Km (purified protein [10]): 1.29e+06 M⁻¹ s⁻¹

Reference: publication PMC6130075, “Engineering of 3-ketosteroid-∆^1-dehydrogenase based site-directed saturation mutagenesis for efficient biotransformation of steroidal substrates” (Microbial Cell Factories, 2018)
